Data reported in article PMC2901514 (The Febs Journal, 2010).

Target: the molecule itself
Test: SEC

B1: CMP-Neu5Ac synthetase (CNS) from Neisseria meningitidis, K142A mutant (enzyme)
chain: MEKQNIAVILARQNSKGLPLKNLRKMNGISLLGHTINAAISSKCFDRIIVSTDGGLIAEEAKNFGVEVVLRPAELASDTASSISGVIHALETIGSNSGTVTLLQPTSPLRTGAHIREAFSLFDEKIKGSVVSACPMEHHPLATLLQINNGEYAPMRHLSDLEQPRQQLPQAFRPNGAIYINDTASLIANNCFFIAPTKLYIMSHQDSIDIDTELDLQQAENILNHKES
  stoichiometry N: 2
